{
  "source": "paper PMC2946066",
  "target": "VHH ALc-B8 expressed as thioredoxin fusion protein (alpaca)",
  "assay": "SPR",
  "data": [
    {"substance": "recombinant BoNT/A protease (light chain), amino acids 1–448 of BoNT/A holotoxin (from UniProt P0DPI1 1-448) (enzyme)", "values": [
      {"measurement": "Kd", "value": 1.06, "unit": "nM"}
    ]}
  ]
}
